Where two headings read alike, the source gives them in different places. *1 amine or outer side, *2 acyl side, *3 side chain or, on linkers, in order; H or OH if unused. Bridges are numbered along the chain shown (N, C = ends). Primed or numbered codes have the meaning given here. Where no end group is shown, it is not given here. Side-chain parts run from the residue outwards. [ ]: non-standard residue; d: D form. The star is where a group is joined. dpeg″ = spacer —[CO(CH2)O(CH2)2O(CH2)NH]—, O=C(COCCOCN[*:1])[*:2]; dpeg = —[CO(CH2)O(CH2)2O(CH2)NH]— spacer, O=C(COCCOCN[*:1])[*:2]; C20 diacid = O=C(O)CCCCCCCCCCCCCCCCCCC(=O)*; γGlu = O=C(O)[C@H](CCC(=O)[*:2])N[*:1]; Aib = CC(C)(N)C(=O)O
Assays:
Assay in all cases: cell-based or functional assay
[1] = target: T1, human Glucagon receptor (GCGR) (human, UniProt P47871 26-477)
[2] = target: T2, human GLP-1 receptor (GLP-1R) (human, UniProt P43220 24-463)
T2 sequence (P43220 24-463): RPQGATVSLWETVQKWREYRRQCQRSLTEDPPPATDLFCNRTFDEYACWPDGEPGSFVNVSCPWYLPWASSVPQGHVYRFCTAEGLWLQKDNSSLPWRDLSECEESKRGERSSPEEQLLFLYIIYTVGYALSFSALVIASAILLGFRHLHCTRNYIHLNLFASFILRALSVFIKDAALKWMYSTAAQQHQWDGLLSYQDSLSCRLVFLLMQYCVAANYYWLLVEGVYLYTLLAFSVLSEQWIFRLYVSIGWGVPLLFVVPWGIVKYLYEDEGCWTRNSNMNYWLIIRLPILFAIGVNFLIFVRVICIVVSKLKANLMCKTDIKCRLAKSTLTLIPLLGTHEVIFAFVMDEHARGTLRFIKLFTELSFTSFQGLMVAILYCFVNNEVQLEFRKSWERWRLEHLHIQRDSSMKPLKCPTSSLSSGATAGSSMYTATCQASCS

[3] = target: rat Glucagon receptor (GCGR) (rat, UniProt P30082 27-485)
rat Glucagon receptor (GCGR), sequence (P30082 27-485): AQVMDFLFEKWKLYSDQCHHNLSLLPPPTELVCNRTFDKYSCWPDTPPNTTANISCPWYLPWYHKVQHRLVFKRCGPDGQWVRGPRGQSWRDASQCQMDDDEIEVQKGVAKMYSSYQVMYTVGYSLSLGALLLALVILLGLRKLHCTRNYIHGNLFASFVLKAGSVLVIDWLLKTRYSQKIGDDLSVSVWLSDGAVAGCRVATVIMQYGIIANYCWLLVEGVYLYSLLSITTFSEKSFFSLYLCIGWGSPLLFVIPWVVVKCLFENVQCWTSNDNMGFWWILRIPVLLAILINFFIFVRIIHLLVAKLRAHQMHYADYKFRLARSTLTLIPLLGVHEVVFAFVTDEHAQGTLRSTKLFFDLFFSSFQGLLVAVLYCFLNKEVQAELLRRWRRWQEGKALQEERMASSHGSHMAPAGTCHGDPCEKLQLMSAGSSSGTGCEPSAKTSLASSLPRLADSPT

[4] = target: T1, human Glucagon receptor (GCGR); remark: listed apart in the source
[5] = target: T2, human GLP-1 receptor (GLP-1R); remark: listed apart in the source
hGIPR = target: T3, hGIPR (human, UniProt P48546 22-466)
T3 sequence (looked up): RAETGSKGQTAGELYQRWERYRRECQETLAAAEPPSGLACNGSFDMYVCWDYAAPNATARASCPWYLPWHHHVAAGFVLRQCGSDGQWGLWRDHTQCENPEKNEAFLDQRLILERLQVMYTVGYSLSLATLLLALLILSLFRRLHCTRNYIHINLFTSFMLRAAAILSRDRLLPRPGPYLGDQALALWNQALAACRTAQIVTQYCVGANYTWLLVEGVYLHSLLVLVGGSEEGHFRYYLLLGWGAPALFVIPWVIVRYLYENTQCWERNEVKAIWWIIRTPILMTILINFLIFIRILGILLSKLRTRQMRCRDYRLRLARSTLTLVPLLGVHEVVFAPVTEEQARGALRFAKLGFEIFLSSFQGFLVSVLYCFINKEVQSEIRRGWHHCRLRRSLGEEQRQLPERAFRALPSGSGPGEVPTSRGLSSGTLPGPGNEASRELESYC

[6] = target: cynomolgus monkey Glucagon receptor (GCGR) (cynomolgus monkey)

B1: Compound A34 (peptide)
peptide: YSHGTFTSDYSKYLDK([γGlu-γGlu-dpeg″-C20 diacid])KYAEKFVKWLEDEPSSGAPPPS-NH2
modifications: lactam 20-24
- pEC50, cAMP accumulation [1]: 11.9 pEC50 (-log M)
- pEC50, cAMP accumulation [2]: < 9 pEC50 (-log M)

B2: Compound A7 (peptide)
peptide: YSHGTFTSDYSKYLDK([γGlu-γGlu-dpeg-C20 diacid])KYAQEF[Aib]QWLEDEPSSGAPPPS-OH
- pEC50, cAMP accumulation [1]: 10.7 pEC50 (-log M)
- pEC50, cAMP accumulation [2]: < 9 pEC50 (-log M)

B3: Compound A31 (peptide)
peptide: YSHGTFTSDYSKYLDK([γGlu-γGlu-dpeg″-C20 diacid])KYAEKFVKWLEDEPSSGEPPPS-OH
modifications: lactam 20-24
- pEC50, cAMP accumulation [1]: 11.9 pEC50 (-log M)
- pEC50, cAMP accumulation [2]: < 9 pEC50 (-log M)

B4: Compound A32 (peptide)
peptide: YSHGTFTSDYSKYLDK([γGlu-γGlu-dpeg″-C20 diacid])KYAEKFVKWLEDEPSSGKPPPS-OH
modifications: lactam 20-24
- pEC50, cAMP accumulation [1]: 11.7 pEC50 (-log M)
- pEC50, cAMP accumulation [2]: < 9 pEC50 (-log M)

B5: Compound A39 (peptide)
peptide: YSHGTFTSDYSKYLD[Aib]KYAKK([γGlu-γGlu-dpeg″-C20 diacid])FVKWLEEEPSSGAPPPS-OH
modifications: lactam 24-28; N-terminus assumed
SMILES: CC(C)C[C@@H]1NC(=O)[C@H](Cc2c[nH]c3ccccc23)NC(=O)[C@@H](NC(=O)[C@@H](NC(=O)[C@H](Cc2ccccc2)NC(=O)[C@H](CCCCNC(=O)CC[C@H](NC(=O)CC[C@H](NC(=O)COCCOCNC(=O)CCCCCCCCCCCCCCCCCCC(=O)O)C(=O)O)C(=O)O)NC(=O)[C@H](CCCCN)NC(=O)[C@H](C)NC(=O)[C@H](Cc2ccc(O)cc2)NC(=O)[C@H](CCCCN)NC(=O)C(C)(C)NC(=O)[C@H](CC(=O)O)NC(=O)[C@H](CC(C)C)NC(=O)[C@H](Cc2ccc(O)cc2)NC(=O)[C@H](CCCCN)NC(=O)[C@H](CO)NC(=O)[C@H](Cc2ccc(O)cc2)NC(=O)[C@H](CC(=O)O)NC(=O)[C@H](CO)NC(=O)[C@@H](NC(=O)[C@H](Cc2ccccc2)NC(=O)[C@@H](NC(=O)CNC(=O)[C@H](Cc2c[nH]cn2)NC(=O)[C@H](CO)NC(=O)[C@@H](N)Cc2ccc(O)cc2)[C@@H](C)O)[C@@H](C)O)C(C)C)CCCCNC(=O)CC[C@@H](C(=O)N[C@@H](CCC(=O)O)C(=O)N2CCC[C@H]2C(=O)N[C@@H](CO)C(=O)N[C@@H](CO)C(=O)NCC(=O)N[C@@H](C)C(=O)N2CCC[C@H]2C(=O)N2CCC[C@H]2C(=O)N2CCC[C@H]2C(=O)N[C@@H](CO)C(=O)O)NC(=O)[C@H](CCC(=O)O)NC1=O
- pEC50, cAMP accumulation [1]: 11.7 pEC50 (-log M)
- pEC50, cAMP accumulation [2]: < 9 pEC50 (-log M)

B6: Compound A6 (peptide)
peptide: YSHGTFTSDYSKYLD[Aib]KYAQK([γGlu-γGlu-dpeg-C20 diacid])FV[Aib]WLEDEPSSGAPPPS-OH
- pEC50, cAMP accumulation [3]: 10.3 pEC50 (-log M)
- pEC50, cAMP accumulation [4]: 12.2 pEC50 (-log M)
- pEC50, cAMP accumulation [5]: < 7 pEC50 (-log M)
- pEC50, cAMP accumulation (hGIPR): < 9 pEC50 (-log M)
- pEC50, cAMP accumulation [6]: 9.77 pEC50 (-log M)
- pEC50, cAMP accumulation [1]: 12.2 pEC50 (-log M)
- pEC50, cAMP accumulation [2]: < 7 pEC50 (-log M)

B7: Compound A35 (peptide)
peptide: YSHGTFTSDYSKYLDK([γGlu-γGlu-dpeg″-C20 diacid])KYAEKFVKWLEDE-NH2
modifications: lactam 20-24
- pEC50, cAMP accumulation [1]: 11.9 pEC50 (-log M)
- pEC50, cAMP accumulation [2]: < 9 pEC50 (-log M)

B8: Compound A38 (peptide)
peptide: YSHGTFTSDYSKYLD[Aib]KYAEK([γGlu-γGlu-dpeg″-C20 diacid])FVKWLEEEPSSGAPPPS-OH
modifications: lactam 24-28; N-terminus assumed
SMILES: CC(C)C[C@@H]1NC(=O)[C@H](Cc2c[nH]c3ccccc23)NC(=O)[C@@H](NC(=O)[C@@H](NC(=O)[C@H](Cc2ccccc2)NC(=O)[C@H](CCCCNC(=O)CC[C@H](NC(=O)CC[C@H](NC(=O)COCCOCNC(=O)CCCCCCCCCCCCCCCCCCC(=O)O)C(=O)O)C(=O)O)NC(=O)[C@H](CCC(=O)O)NC(=O)[C@H](C)NC(=O)[C@H](Cc2ccc(O)cc2)NC(=O)[C@H](CCCCN)NC(=O)C(C)(C)NC(=O)[C@H](CC(=O)O)NC(=O)[C@H](CC(C)C)NC(=O)[C@H](Cc2ccc(O)cc2)NC(=O)[C@H](CCCCN)NC(=O)[C@H](CO)NC(=O)[C@H](Cc2ccc(O)cc2)NC(=O)[C@H](CC(=O)O)NC(=O)[C@H](CO)NC(=O)[C@@H](NC(=O)[C@H](Cc2ccccc2)NC(=O)[C@@H](NC(=O)CNC(=O)[C@H](Cc2c[nH]cn2)NC(=O)[C@H](CO)NC(=O)[C@@H](N)Cc2ccc(O)cc2)[C@@H](C)O)[C@@H](C)O)C(C)C)CCCCNC(=O)CC[C@@H](C(=O)N[C@@H](CCC(=O)O)C(=O)N2CCC[C@H]2C(=O)N[C@@H](CO)C(=O)N[C@@H](CO)C(=O)NCC(=O)N[C@@H](C)C(=O)N2CCC[C@H]2C(=O)N2CCC[C@H]2C(=O)N2CCC[C@H]2C(=O)N[C@@H](CO)C(=O)O)NC(=O)[C@H](CCC(=O)O)NC1=O
- pEC50, cAMP accumulation [1]: 11.4 pEC50 (-log M)
- pEC50, cAMP accumulation [2]: < 9 pEC50 (-log M)

B9: Compound A26 (peptide)
peptide: YSHGTFTSDYSKYLDK([γGlu-γGlu-dpeg″-C20 diacid])KYAEKFVKWLEKEPSSGAPPPS-OH
modifications: lactam 20-24
- pEC50, cAMP accumulation [1]: 11.1 pEC50 (-log M)
- pEC50, cAMP accumulation [2]: < 9 pEC50 (-log M)

B10: Compound A33 (peptide)
peptide: YSHGTFTSDYSKYLDK([γGlu-γGlu-dpeg″-C20 diacid])KYAEKFVKWLEDEPSSGSPPPS-OH
modifications: lactam 20-24
- pEC50, cAMP accumulation [1]: 11.9 pEC50 (-log M)
- pEC50, cAMP accumulation [2]: < 9 pEC50 (-log M)

B11: Compound A27 (peptide)
peptide: YSHGTFTSDYSKYLDK([γGlu-γGlu-dpeg″-C20 diacid])KYAEKFVKWLENEPSSGAPPPS-OH
modifications: lactam 20-24
- pEC50, cAMP accumulation [1]: 12 pEC50 (-log M)
- pEC50, cAMP accumulation [2]: < 9 pEC50 (-log M)

B12: Compound A36 (peptide)
peptide: Ac-YSHGTFTSDYSKYLD[Aib]KYAQK([γGlu-γGlu-dpeg″-C20 diacid])FVKWLEEEPSSGAPPPS-OH
modifications: lactam 24-28
SMILES: CC(=O)N[C@@H](Cc1ccc(O)cc1)C(=O)N[C@@H](CO)C(=O)N[C@@H](Cc1c[nH]cn1)C(=O)NCC(=O)N[C@H](C(=O)N[C@@H](Cc1ccccc1)C(=O)N[C@H](C(=O)N[C@@H](CO)C(=O)N[C@@H](CC(=O)O)C(=O)N[C@@H](Cc1ccc(O)cc1)C(=O)N[C@@H](CO)C(=O)N[C@@H](CCCCN)C(=O)N[C@@H](Cc1ccc(O)cc1)C(=O)N[C@@H](CC(C)C)C(=O)N[C@@H](CC(=O)O)C(=O)NC(C)(C)C(=O)N[C@@H](CCCCN)C(=O)N[C@@H](Cc1ccc(O)cc1)C(=O)N[C@@H](C)C(=O)N[C@@H](CCC(N)=O)C(=O)N[C@@H](CCCCNC(=O)CC[C@H](NC(=O)CC[C@H](NC(=O)COCCOCNC(=O)CCCCCCCCCCCCCCCCCCC(=O)O)C(=O)O)C(=O)O)C(=O)N[C@@H](Cc1ccccc1)C(=O)N[C@H](C(=O)N[C@H]1CCCCNC(=O)CC[C@@H](C(=O)N[C@@H](CCC(=O)O)C(=O)N2CCC[C@H]2C(=O)N[C@@H](CO)C(=O)N[C@@H](CO)C(=O)NCC(=O)N[C@@H](C)C(=O)N2CCC[C@H]2C(=O)N2CCC[C@H]2C(=O)N2CCC[C@H]2C(=O)N[C@@H](CO)C(=O)O)NC(=O)[C@H](CCC(=O)O)NC(=O)[C@H](CC(C)C)NC(=O)[C@H](Cc2c[nH]c3ccccc23)NC1=O)C(C)C)[C@@H](C)O)[C@@H](C)O
- pEC50, cAMP accumulation [1]: 10.8 pEC50 (-log M)
- pEC50, cAMP accumulation [2]: < 9 pEC50 (-log M)

B13: Compound A28 (peptide)
peptide: YSHGTFTSDYSKYLDK([γGlu-γGlu-dpeg″-C20 diacid])KYAEKFVKWLESEPSSGAPPPS-OH
modifications: lactam 20-24
- pEC50, cAMP accumulation [1]: 11.7 pEC50 (-log M)
- pEC50, cAMP accumulation [2]: < 9 pEC50 (-log M)

B14: Compound A30 (peptide)
peptide: YSHGTFTSDYSKYLD[Aib]KYAQK([γGlu-γGlu-dpeg″-C20 diacid])FVKWLEDEPSSGAPPPS-OH
modifications: lactam 24-28
- pEC50, cAMP accumulation [1]: 12.5 pEC50 (-log M)
- pEC50, cAMP accumulation [2]: < 9 pEC50 (-log M)

B15: Compound A37 (peptide)
peptide: Ac-YSHGTFTSDYSKYLDK([γGlu-γGlu-dpeg″-C20 diacid])KYAEKFVKWLEDEPSSGAPPPS-OH
modifications: lactam 20-24
- pEC50, cAMP accumulation [1]: 11.5 pEC50 (-log M)
- pEC50, cAMP accumulation [2]: < 9 pEC50 (-log M)

Source: patent US20240228572A1 (I2O THERAPEUTICS, published 2024)
